Measurements reported in patent US20160334414A1 (BAXALTA, published 2016).

B1: monoclonal rabbit anti-RAM9 idiotypic antibody 68-1 (antibody, V domains shown)
VH: QEQLKESGGRLVKPGGTLTLTCKASGMDFNNYYYMAWVRQAPGKGLEWIGYISGGGSPYYASWAKGRFTISRTSTTVDLKMTSLTTEDTATYFCGRYTDINNGIDLWGPGTLVTVSS
VL: DIVMTQTPSSVSEPVGGTVTINCQASENIYSNLAWYQQKPGQPPKLLIYLASSLTSGVPSRFKGSGSGTEFTLTISDLECADAAIYYCQNNYGDVRYGRNAFGGGTEVVVKG
notes: Rabbit IgG; also called anti-RAM9-68-1; Clone 68-1
B2: anti-oxMIF antibody RAM9 (antibody, V domains shown)
VH: EVQLLESGGGLVQPGGSLRLSCAASGFTFSIYSMNWVRQAPGKGLEWVSSIGSSGGTTYYADSVKGRFTISRDNSKNTLYLQMNSLRAEDTAVYYCAGSQWLYGMDVWGQGTTVTVSS
VL: DIQMTQSPSSLSASVGDRVTITCRSSQRIMTYLNWYQQKPGKAPKLLIFVASHSQSGVPSRFRGSGSETDFTLTISGLQPEDSATYYCQQSFWTPLTFGGGTKVEIKR
notes: also called biotinylated RAM9
B3: monoclonal rabbit anti-RAM9 idiotypic antibody 54-5 (antibody, V domains shown)
VH: QSLEESGGDLVKPGASLTLTCTASGFSFSSGYDMCWVRQAPGKGLEWIACIYDGDVRTYYASWAKGRFTISRTSSTTMTLQMTGLTAADTATYLCARGASGYLSALYLWGPGTLVTVSS
VL: DVVMTQTPASVSEPVGGTVTIKCQASFTITSNLAWYQQKPGQPPKLLIYGASNLASGVSSRFRGSGFGTEFTLTISDLECADAATYYCQCAAVLSSWTFGGGTEVVVKG
notes: Rabbit IgG; also called anti-RAM9-54-5; Clone 54-5

Experiments:
[1] = target: B2; assay: secondary screening (neutralising) ELISA with finally purified antibody: inhibition of biotinylated RAM9 binding to coated human MIF, % recovery; the number stands in paragraph 159 without a unit, ng/ml is from the axis log c (ng/ml) of the figure
Description: Microplates were coated with human MIF (10 μg/ml PBS, 100 μl/well) and blocked with 250 μl 1.5% fish gelatin in PBS. Washing steps (4×250 μl of PBS per well) were included between the incubations. The samples were serially pre-diluted (in 1% fish gelatin/PBS) to 2× final dilution and mixed with an equivalent volume of biotinylated RAM9 (30 ng/ml) (equivalent to a 1:2 dilution, final concentration of RAM9 is therefore 15 ng/ml). These mixtures were allowed to form complexes for 30 min. […] Biotinylated RAM9 captured on the plate was detected using HRP coupled Streptavidin and TMB as chromogenic substrate. The absorbance of each well was related to the absorbance of the standard curve by linear regression and is expressed in ng/ml. The concentration calculated for biotinylated RAM9 in the sample is related to the calculated concentration of biotinylated RAM9 in the negative control (% recovery=(100%/measured concentration of biotinylated RAM9 in the negative control)×measured concentration of RAM9 in the sample). Half maximal binding inhibition (IC₅₀) by anti-RAM9 antibodies is calculated by blotting log concentration of rabbit anti-RAM9 against % recovery and non-linear 4-parameter curve fit with variable slope FIG. 4a.

[2] = target: T1, oxMIF in human tissue cryosections (human, UniProt P14174 2-115); assay: IHC on pancreas cryosections, 68-1 without the primary antibody RAM9
T1 construct: also called oxidized MIF
T1 sequence (P14174 2-115 limits assumed): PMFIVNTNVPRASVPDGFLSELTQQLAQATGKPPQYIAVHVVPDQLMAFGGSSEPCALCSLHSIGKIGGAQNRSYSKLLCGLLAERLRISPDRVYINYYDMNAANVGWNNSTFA
Description: (§1) The slides were prepared according to state of the art techniques known to experts, either fresh frozen or OCT embedded, sectioned at 10 μm and stored at <=−80° C. after sectioning. All following steps were done at ambient temperature. The cryo-sections were air dried for 30 min and unspecific binding was blocked with blocking buffer (BB: 20% Normal Goat Serum/2% Bovine Serum Albumin/0.2% Fish Gelatine in TBS) for 15 min. The sections were then incubated without primary antibody or with anti-oxMIF antibody RAM9 in primary antibody dilution buffer (PADB: 2% Bovine Serum Albumin/0.2% Fish Gelatine in TBS) at a concentration of 2 μg/ml for 60 min. After washing in TBS, the specimen was fixed in 4% PBS buffered formaldehyde for 20 min. Excess formaldehyde was removed by washing in TBS for 5-10 min, Endogenous peroxidases were blocked by incubating the tissue sections in 0.3% H₂O₂ in methanol for 20 min. Excess methanol/H₂O₂ was removed by washing in TBS for 5-10 min. Detection of was done by incubating the tissue sections with anti-idiotypic rabbit monoclonal antibodies (68-1) diluted in PADS at 1 μg/ml for 30 min. Excess detection antibody was removed by washing in TBS for 5-10 min. The staining was done using SignalStain® Boost IHC Detection Reagent Rabbit for 30 min. Then the sections were extensively washed again 10 min in TBS. […]

[3] = target: T1, oxMIF in human tissue cryosections; assay: IHC on infiltrating ductal carcinoma of the pancreas, RAM9 detected by rabbit anti-RAM9 54-5 or 68-1
Description: as §1

IC50 [1] [µg/mL]	binding result [2]	binding result [3]	Binder
0.0296	no binding (tested: 1 µg/ml)		B1
		binds	B2
0.00596			B3
